Kd data for one substance are collected here from patent US20120270800A1.

The target of the assay is KIX. The assay can be described thus: fluorescence polarization. (In fluorescence polarisation assays a small probe gives low polarisation when free and higher when bound to something large.)

pKd: −log10 of the molar value.

With MLL WT, the pKd (as a rule, −log10 of the Kd, conventionally taken in molar units) was 7.05.
